Here are results for two sequences from PMC3478855.

Holding throughout (assay): SPR
For orientation: In SPR one partner is held on a chip, and binding of the other changes the refractive index at the surface.

Data set [1] concerns hemagglutinin (HA) of AIV H5N1, purified (Influenza A virus H5N1). The note with it: PBS 10 mM pH 7.4, temperature not stated; cited from earlier work.
In data set [2] the test system is inactivated AIV H9N2 whole virus (Influenza A virus H9N2). The note with it: biotin, PBS 10 mM pH 7.4, temperature not stated.
In data set [3] the test system is inactivated AIV H5N2 whole virus (Influenza A virus H5N2). The conditions noted are these: biotin, PBS 10 mM pH 7.4, temperature not stated.
Data set [4] relates to inactivated AIV H5N1 whole virus (HA on virion) (Influenza A virus H5N1). The note with it: biotin, PBS 10 mM pH 7.4, temperature not stated.
Data set [5] deals with inactivated AIV H1N1 whole virus (Influenza A virus H1N1). The conditions noted are these: biotin, PBS 10 mM pH 7.4, temperature not stated.
Data set [6] relates to inactivated AIV H2N2 whole virus (Influenza A virus H2N2). The conditions noted are these: biotin, PBS 10 mM pH 7.4, temperature not stated.
The subject of data set [7] is inactivated AIV H7N2 whole virus (Influenza A virus H7N2). The conditions noted are these: biotin, PBS 10 mM pH 7.4, temperature not stated.
In data set [8] the test system is AIV H5N9 whole virus (Influenza A virus H5N9). The note with it: biotin, PBS 10 mM pH 7.4, temperature not stated.

What is called Kd is the equilibrium constant for the complex coming apart. In the case of “GTGTGCATGGATAGCACGTAACGGTGTAGTAGATACGTGCGGGTAGGAAGAAAGGGAAATAGTTGTCCTGTTG [H5N1 DNA aptamer, best candidate (previous study)]”, the Kd in data set [1] is 4.65 nM.

As to “GTGTGCATGGATAGCACGTAACGGTGTAGTAGATACGTGCGGGTAGGAAGAAAGGGAAATAGTTGTCCTGTTG [H5N1 DNA aptamer, biotinylated (sensor)]”, the binding signal in data set [2] was 2 RI 10^-6; in data set [3], 10 RI 10^-6; in data set [4] it was 262 RI 10^-6; in data set [5], -4 RI 10^-6; in data set [6] it was -1 RI 10^-6; in data set [7], 7 RI 10^-6. Besides, the binding signal in data set [8] worked out at 3 RI 10^-6.
